Source: the supplement of paper PMC9170038

System: MS2 coat protein
Test: apparent KD of MS2 coat protein; designed switch direction (-1 OFF switch, 1 ON switch): -1; higher = weaker reporter binding
In short: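 On Illumina chips, designed RNA switches with common flanks were made by stalled E. coli RNA polymerase. Titrations with SNAP-549-labelled MS2 coat protein, doubling from 0.7 or 1.5 nM to 3 µM, were done with no input, with 200 uM small-molecule ligand, or with an oligonucleotide input. Apparent KD is the median per design over clusters, from curve fits of normalised cluster fluorescence.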

[1] = Eterna round: R95, input ligand: microRNA oligo, concentration not stated
[2] = Eterna round: R95, input ligand: FMN 200 uM
[3] = Eterna round: R95, input ligand: none
[4] = input ligand: microRNA oligo, concentration not stated

Row | Sequence | apparent KD of MS2 coat protein (input ligand: FMN 200 uM) [nM] | apparent KD of MS2 coat protein (input ligand: none) [nM] | apparent KD of MS2 coat protein [1] [nM] | apparent KD of MS2 coat protein [2] [nM] | apparent KD of MS2 coat protein [3] [nM] | apparent KD of MS2 coat protein [4] [nM]
1 | GGCGUGUAUUAGGAUAUUGGAGGGAGGGAGGGCUAAGAAGGAGUAACAUGAGGAUCACCCAUGUAGAGGAAGGG [RHig 2] (Eterna round: R97, puzzle: Exclusion 6) | 63.1 | 95.3 |  |  |  | 
2 | AUAAUGUGAGGAUAUCAGUCGACUAGCUUCGGCUAGUCGACUGAGAAGGCACAUGAGGAUCACCCAUGUAGAUC [E4/17-A1] (Eterna round: R97, puzzle: Exclusion 4) | 59 | 925 |  |  |  | 
3 | GUAGAGUCAGGAUAUACAAAUAGAUCGAAAGAUCAAUCCAUACAUGAGGAUCACCCAUGUAGAAGGGACUCUAC [Eli x2 4.15] (Eterna round: R97, puzzle: Exclusion 2) | 20.5 | 16.7 |  |  |  | 
4 | CCUCUACAUGAGGAUCACCCAUGUGAGGAUAUCUCGGAGCAGCCACUUAAGGCGCUCCAGAGAAGGCACGUGUA [Resogeorza] (puzzle: Exclusion 1) |  |  | 17.6 |  |  | 
5 | GAUUGACAUGAGGAUCACCCAUGUGAGGAUAUCGGCCGGACCUUGUUAGCUUCCAGCGCGAGAAGGCGCAUAGG [Exclusion 1 V36] (puzzle: Exclusion 1) |  |  | 28.6 | 58.9 | 43.4 | 
6 | AACUGUACAGGAUAUACAUGAGGAUCACCCAUGUGAGAAUUAAGUGGAGAACCACAAAGUAGAAGGGUACAGGA [Mat - Exclusion 3 - JL mod - D17] (Eterna round: R96, puzzle: Exclusion 3) |  |  |  |  |  | 38.4
7 | AAAAAACAUGAGGAUCACCCAUGUGAGGAUAUCUGUAUUCAAUCCUCGGAUUGAAUACAGAGAAGGCACAUGGG [Ex1: 609] (Eterna round: R96, puzzle: Exclusion 1) | 48.5 | 27.8 |  |  |  | 29.2
8 | AGAGGACAUGAGGAUCACCCAUGUAAGGAUAUGCGGAGAGUUUGGAGAGGUCGGGUAGGCAGAAGGUACAGGAG [JR_Exclu1_Sub050] (Eterna round: R96, puzzle: Exclusion 1) | 48 | 86.4 |  |  |  | 41
9 | AUUCCACAUGAGGAUCACCCAUGUCAGGAUAUGCAUAGUCCUGCCACAUAGGACUAGCGCAGAAGGGAUCGGGC [Eternabot (L2) Solution 20] (Eterna round: R97, puzzle: Exclusion 1) | 53.9 | 19 |  |  |  | 
10 | UUGCCGCAAGGAUAUGCAGACAAGUACAAUACGUGUCUCGGACUUGAGGAUCACCCAAGUAGAAGGCUUUUUAU [LRO-Excl2-14-mod _r4_621 by salish99] (Eterna round: R97, puzzle: Exclusion 2) | 23.7 | 21.4 |  |  |  | 
11 | ACAUUGGUAGUGAGGAUAUCGGUGUGAUAGAAUGCCGAGAAGGCACAUGAGGAUCACCCAUGUAAGAUUGGGCA [JR_BMEx4_Sub043] (Eterna round: R97, puzzle: Brourd's mod of Exclusion 4) | 299 | 186 |  |  |  | 
12 | AGUACUAACACGUUAGUGUUAGUACAAUAAGCUUGUGAAACAUGAGGAUCACCCAUGUCCUCAUAAGCUCGUCUUAU [salish99_TOv2_r3_056] (puzzle: Sensor v3, turn-off variant 2) |  |  | 645 | 16.7 | 16.1 | 
13 | UUUAAUUGUGACAUGGGUGACAUGAGGAUCACCCAUGUCACAAGCUUUUUGCUCGUCUUAUAAUUAACCCAUGUCAC [Stov1/13-A1] (Eterna round: R97, puzzle: Sensor, turn-off variant 1) | 25.6 | 27.7 |  |  |  | 
14 | UUUUAAUAUGAAGGAUAUACUUAACAUGAGGAUCACCCAUGUGGUGUUGUGAGUGAGUGAGUUUAGUAGAAGGUCAAUGAUUUU [JMF's solution 69] (Eterna round: R96, puzzle: Exclusion NG 2) | 638 | 252 |  |  |  | 381
15 | GAUGAGAGAGGAUAUACAUGAGGAUCACCCAUGUAAUUUUCGGACAUGGAAGCCUGAUGUAGAAGGCUCGCAUG [Usmaercele] (puzzle: Exclusion 3) |  |  | 76.3 |  |  | 
16 | GGGAAGAACCAACAAGCAAACAUGAGGAUCACCCAUGUAGUAAGAGAAAUUGAGGUGAUUCAGAGAGCUCGACUUAU [AK-miRNA-r3-7.1] (Eterna round: R97, puzzle: Sensor, turn-off variant 1) | 367 | 359 |  |  |  | 
17 | AGUACUAUCACGAAAGUGAUAGUACAAUAAGCAAGUGAAACAUGAGGAUCACCCAUGUCCUCAUUUGCUCGUCUUAU [JL turnoff v2 74] (Eterna round: R96, puzzle: Sensor v2, turn-off variant 2) | 16.7 | 19.1 |  |  |  | 400

Row | Sequence | apparent KD of MS2 coat protein (input ligand: FMN 200 uM) [nM] | apparent KD of MS2 coat protein (input ligand: none) [nM] | apparent KD of MS2 coat protein [1] [nM] | apparent KD of MS2 coat protein [2] [nM] | apparent KD of MS2 coat protein [3] [nM] | apparent KD of MS2 coat protein [4] [nM]
18 | UGUUGUCGCGCAGGAUAUGAGGAUCACCCAUAUACAGGAUAUGAAAAGAAGGGUCUGAGGAUCACCCAGAAGGGCGGGACAACU [pwkr exNG2 2xF5 2xFMN.27] (Eterna round: R96, puzzle: Exclusion NG 2) | 1340 | 135 |  |  |  | 99.9
19 | UAUGUGUGAGGAUAUGGUAAAGAUAAGAUGAUGAAAGAACUCCAGAAGGCACAUGAGGAUCACCCAUGUAGAUG [JL-ex4-2.10 Jieux mod] (puzzle: Exclusion 4) |  |  | 37.2 | 53.8 | 32.2 | 
20 | UAUUAACAAGUAAGAUCCCACAUGAGGAUCACCCAUGUGCUCGUCUUAUAAGGUACUGUGACGAAAGUCACGGUACC [Dup of Eli's R95 Sensor 3, v1 - 87] (Eterna round: R97, puzzle: Sensor, turn-off variant 1) | 16.3 | 16.5 |  |  |  | 
21 | AGUAGGAGAGGAUAUACAAGAAGUCGAAAGACUUCAACUCAACAUGAGGAUCACCCAUGUAGAAGGCUCCUACA [Omei Ex2 BD A5] (Eterna round: R97, puzzle: Exclusion 2) | 83.3 | 17.9 |  |  |  | 
22 | GUUGUUACUGAGGAUAUUAUUUUAUUCGAUUGAUAAGAAGGCAGUACAUGAGGAUCACCCAUGUGGGUAGCUAG [Polaris20] (Eterna round: R97, puzzle: Exclusion 6) | 434 | 95.5 |  |  |  | 
23 | AACAAAAGCGUAGGAUAUGACUGGGCUCAUGCCUAACAUAACUACAAACAUGAGGAUCACCCAUGUCAGAAGGACGAAUAAAAU [Isesbequti] (Eterna round: R96, puzzle: Exclusion NG 2) | 87.1 | 72 |  |  |  | 57.5
24 | AUCGGACAUGAGGAUCACCCAUGUCAGGAUAUCUGGAACCAUUGGCAGAUGAGGGAAAAGAGAAGGGACAGUGG [EX1 C.3] (Eterna round: R97, puzzle: Exclusion 1) | 20.2 | 18.5 |  |  |  | 
25 | GGUUGGCGAGGAUAUACAUGAGGAUCACCCAUGUGAGAGAAAAAAGUGAGCAAGAAAAGUAGAAGGCGCUGACG [salish99_ex3_r3_030] (puzzle: Exclusion 3) |  |  | 75.7 | 627 | 27.5 | 
26 | UCUCGCGGGCAAGGAUAUCCUACGUUGUUCUGGCCCGUGCAUGUUACAUGAGGAUCACCCAUGUGGGAGAAGGUGCACCAGGGC [Design 38] (Eterna round: R96, puzzle: Exclusion NG 2) | 56.9 | 52.5 |  |  |  | 30.3
27 | GCGGACUAGAUCGUGAGAUCAGAGACAUGAGGAUCACCCAUGUAGGAUAUCGAUUCGAAACGAAUCGAGAAGGGCAUAGUCCGC [JL denovo 7] (Eterna round: R96, puzzle: Exclusion NG 3) | 17.1 | 15.9 |  |  |  | 14.8
28 | UACAUGAGGAUCACCCAUGUUUUGUCGUGUAUGGUAUUUAUCUAGGAUAUCAUUAUAUUUAUUUAUGAGAAGGAGAAUAUUAAU [JMF's solution 97] (Eterna round: R96, puzzle: Exclusion NG 3) | 29.9 | 27.6 |  |  |  | 21.9
29 | GGUGAGCUAGGAUAUGCUUUGGGAACGCAUUCCUUCGAUAAACUUGAGGAUCACCCAAGUAGAAGGAGCUUGCC [salish99_ex2_r4_029] (Eterna round: R97, puzzle: Exclusion 2) | 158 | 34 |  |  |  | 
30 | UUUUAGAGAGGAUAUAUAAAGUGAAACAUGAGGAUCACCCAUGUAAUUUUAUGGAUGUAAAUAGAAGGCUCAUUUA [JL-ex5-3.01] (puzzle: Exclusion 5) |  |  | 34.3 |  |  | 
31 | UCAAAGUCAGGAUAUACAUGAGGAUCACCCAUGUAAAAUUUUAAUUUAAUUUGAAGGUGUAGAAGGGACAAACC [Ex3 #33] (Eterna round: R97, puzzle: Exclusion 3) | 18.3 | 31.6 |  |  |  | 
32 | AAUUAACAUCAGGAUAUGACUAGCUUCGGCUAGUCAGAAGGGAUGACAUGAGGAUCACCCAUGUGAUCAAUUAA [E6/2-A1] (Eterna round: R97, puzzle: Exclusion 6) | 127 | 134 |  |  |  | 
33 | UUUAAUUUUUUUUUUUUACAAGCUUUUUGCUCGUCUUAUACAUGAGGAUCACCCAUGUGGGUGGGAGAUAAAUUAUC [JMF 24] (puzzle: Sensor v3, turn-off variant 2) |  |  | 59.3 | 88.6 | 341 | 
34 | CGCGGCGCGUAGGAUAUUGGGUCGGACGGCAAAUAAGAAGGACGCACAUGAGGAUCACCCAUGUCGAAAGCACA [Eternabot (Original) Solution 17] (Eterna round: R97, puzzle: Exclusion 6) | 27.8 | 33.7 |  |  |  | 
